The source of these data is patent US20190382488A1 (IMAGINAB, published 2019).

Residue numbers refer to the chain shown, from its start.

Test [1] has as its target T1, cell-surface human CD8 (human, UniProt P01732 22-235).
T1 construct: the cell is named under assay; also called cellular human CD8; CD8 on PC3-CD8 cells
The test is described as follows: flow cytometry, HPB-ALL cells. The protocol: (§1) Flow cytometry analysis of minibodies binding to cell-surface human CD8 on HPB-ALL cells was performed. Cells were stained with respective concentrations of minibody, washed, and then stained with a secondary anti-human IgG (Fc-specific) APC-conjugated antibody. Analysis was performed with 10,000 events/point in triplicate for each concentration. The results are shown in graph format in FIG. 29A. The graph presents the normalized mean fluorescence intensity (MFI) vs. the log of the concentration (nM). Error bars represent the standard error. The data indicates an EC₅₀ of 0.15 nM and 0.19 nM.
as §1, with “analysis of IgG2 minibodies binding” for “analysis of minibodies binding”, “in FIG. 29E. The graph” for “in FIG. 29A. The graph”, “EC₅₀ of 0.1 nM, 0.13 nM, and 0.08” for “EC₅₀ of 0.15 nM and 0.19”, “nM, and 0.08 nM.” for “nM and 0.19 nM.”
For orientation: In flow cytometry, cells or beads pass a laser one at a time.

For test [2], the target named is T1, cell-surface human CD8. The experiment in a line: flow cytometry on HPB-ALL cells, anti-human IgG (Fc-specific)-APC. As to the method: as §1, with “analysis of IgG2 minibodies binding” for “analysis of minibodies binding”, “in FIG. 29E. The graph” for “in FIG. 29A. The graph”, “EC₅₀ of 0.1 nM, 0.13 nM, and 0.08” for “EC₅₀ of 0.15 nM and 0.19”, “nM, and 0.08 nM.” for “nM and 0.19 nM.”

In test [3] the target is T2, recombinant human CD8 (rhCD8) (human, UniProt P01732 22-182).
T2 construct: Soluble purified recombinant protein; also called purified recombinant human CD8 protein; soluble CD8
T2 sequence (P01732 22-182 limits assumed): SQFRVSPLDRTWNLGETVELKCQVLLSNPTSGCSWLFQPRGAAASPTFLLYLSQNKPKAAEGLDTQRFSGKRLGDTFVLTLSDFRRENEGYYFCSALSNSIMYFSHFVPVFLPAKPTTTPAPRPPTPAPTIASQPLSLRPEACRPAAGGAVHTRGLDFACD
The test is described as follows: SPR (BIAcore), minibody captured via anti-human IgG Fc, hCD8 analyte at 50 nM. The source says: Surface plasma resonance (SPR) was used to determine the binding affinity for all the IAb_Mb_CD8 variants to recombinant human CD8 (Table 8.0). The minibody protein in the supernatant was captured on to the BIAcore chip using an anti-human IgG (Fc-specific) antibody. The amount of minibody captured on the chip was normalized to enable a direct comparison of binding affinity between the variants as a kinetic “scouting” experiment to rank affinities. The rhCD8 protein was passed over the captured minibody protein to measure binding.
Table 8.0 summarizes the measured association (ka), dissociation (kd), and kD constants for the IAb_Mb_CD8 variants binding to recombinant hCD8. The variants were captured on a BIAcore chip using anti-human Fc-specific IgG antibody.
Background: Surface plasmon resonance follows binding to a sensor surface in real time, without labels.

Test [4] concerns the target T1, cell-surface human CD8. The experiment in a line: flow cytometry on HPB-ALL cells, Protein L-biotin then streptavidin-APC. As to the method:
Flow cytometry analysis of cys-diabody (+/−C-terminal cysteine conjugation to Desferoxamine) binding to cell-surface human CD8 on HPB-ALL cells was performed. Cells were stained with respective concentrations of cys-diabody, washed, stained with a secondary Protein L conjugated to Biotin, washed, then stained with a tertiary streptavidin-APC. Analysis was performed with 10,000 events/point in triplicate for each concentration. The results are shown in graph format in FIG. 30C. The graph presents the mean fluorescence intensity (MFI) vs. the log of the concentration (nM). Error bars represent the standard error. The data indicates an EC₅₀ of 0.04 nM and 0.06 nM.

The target in test [5] is T1, cell-surface human CD8. The experiment in a line: flow cytometry on CD8+ cells, transfection supernatant neat to 1:81, anti-human IgG (Fc-specific)-APC. As to the method:
FIGS. 17A-17D display the results of the flow cytometry analysis of the IAb_Mb_CD8 variants. All histograms show allophycocyanin (APC) signal vs. counts. Supernatants from transfection of the variants at different dilutions were incubated with CD8+ cells. Cells were washed and subsequently stained with a secondary anti-human IgG (Fc-specific) APC conjugated antibody. 1×10⁵ cells were stained per point and analysis was performed with 10,000 events/point.

T1 sequence (P01732 22-235 limits assumed): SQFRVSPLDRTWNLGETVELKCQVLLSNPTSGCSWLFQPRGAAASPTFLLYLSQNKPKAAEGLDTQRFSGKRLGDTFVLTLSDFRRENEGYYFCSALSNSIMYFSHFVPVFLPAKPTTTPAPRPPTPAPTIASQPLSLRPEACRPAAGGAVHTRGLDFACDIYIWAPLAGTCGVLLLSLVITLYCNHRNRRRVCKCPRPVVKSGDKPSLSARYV

B1: IAb_M1b_CD8 IgG2 EH (other)
chain: DVQITQSPSSLSASVGDRVTITCRTSRSISQYLAWYQQKPGKVPKLLIYSGSTLQSGVPSRFSGSGSGTDFTLTISSLQPEDVATYYCQQHNENPLTFGGGTKVEIKGSTSGGGSGGGSGGGGSSEVQLVESGGGLVQPGGSLRLSCAASGFNIKDTYIHFVRQAPGKGLEWIGRIDPANDNTLYASKFQGKATISADTSKNTAYLQMNSLRAEDTAVYYCGRGYGYYVFDHWGQGTLVTVSSERKCCVECPPCPGGGSSGGGSGGQPREPQVYTLPPSREEMTKNQVSLTCLVKGFYPSDIAVEWESNGQPENNYKTTPPMLDSDGSFFLYSKLTVDKSRWQQGNVFSCSVMHEALHNHYTQKSLSLSPGK
notes: Minibody homodimer with artificial IgG2 hinge-extension and IgG2 CH3
For orientation: EC50 means the midpoint of the concentration-response curve. Take B1: the EC50 in test [1] and in test [2] was 0.13 nM each time.

B2: IAb_Mb2a_CD8 (other)
chain: EVQLVESGGGLVQPGGSLRLSCAASGFNIKDTYIHFVRQAPGKGLEWIGRIDPANDNTLYASKFQGKATISADTSKNTAYLQMNSLRAGDTAVYYCGRGYGYYVFDHWGQGTLVTVSSGSTSGGGSGGGSGGGGSSDVQITQSPSSLSASVGDRVTITCRTSRSISQYLAWYQQKPGKVPKLLIYSGSTLQSGVPSRFSGSGSGTDFTLTISSLQPEDVATYYCQQHNENPLTFGGGTKVEIKEPKSCDKTHTCPPCGGGSSGGGSGGQPREPQVYTLPPSRDELTKNQVSLTCLVKGFYPSDIAVEWESNGQPENNYKTTPPVLDSDGSFFLYSKLTVDKSRWQQGNVFSCSVMHEALHNHYTQKSLSLSPGK
notes: also called variant 2a
For orientation: Kd means the concentration at which binding is half-saturated. The koff is the rate constant with which the complex falls apart. Broadly, the kon is a measure of how fast the partners come together. For B2, in test [3], the Ka was determined as 2.2e+08 M⁻¹, the Kd came out at 4.6 nM, the koff was 0.0022 s⁻¹ and the kon stood at 480000 M⁻¹ s⁻¹.

B3: IAb_Cys-Db3b_CD8-Df (other)
chain: DVQITQSPSSLSASVGDRVTITCRTSRSISQYLAWYQQKPGKVPKLLIYSGSTLQSGVPSRFSGSGSGTDFTLTISSLQPEDVATYYCQQHNENPLTFGGGTKVEIKGGGSGGGGEVQLVESGGGLVQPGGSLRLSCAASGFNIKDTYIHFVRQAPGKGLEWIGRIDPANDNTLYASKFQGKATISADTSKNTAYLQMNSLRAEDTAVYYCGRGYGYYVFDHWGQGTLVTVSSGGC
modifications: Desferoxamine (Df) conjugated to the C-terminal cysteine
notes: also called Df-labeled cys-diabody
With B3, the response in test [4] was half-maximal at 0.06 nM (EC50).

B4: IAb_M1b_CD8 IgG2 NH (other)
chain: DVQITQSPSSLSASVGDRVTITCRTSRSISQYLAWYQQKPGKVPKLLIYSGSTLQSGVPSRFSGSGSGTDFTLTISSLQPEDVATYYCQQHNENPLTFGGGTKVEIKGSTSGGGSGGGSGGGGSSEVQLVESGGGLVQPGGSLRLSCAASGFNIKDTYIHFVRQAPGKGLEWIGRIDPANDNTLYASKFQGKATISADTSKNTAYLQMNSLRAEDTAVYYCGRGYGYYVFDHWGQGTLVTVSSERKCCVECPPCPAPPVAGPGQPREPQVYTLPPSREEMTKNQVSLTCLVKGFYPSDIAVEWESNGQPENNYKTTPPMLDSDGSFFLYSKLTVDKSRWQQGNVFSCSVMHEALHNHYTQKSLSLSPGK
notes: Minibody homodimer with native IgG2 hinge and IgG2 CH3
For B4, the EC50 in test [1] and in test [2] was 0.08 nM each time.

B5: Humanized IAb_Mb1_CD8 (other)
chain: DVQITQSPSSLSASVGDRVTITCRTSRSISQYLAWYQQKPGKVPKLLIYSGSTLQSGVPSRFSGSGSGTDFTLTISSLQPEDVATYYCQQHNENPLTFGGGTKVEIKGSTSGGGSGGGSGGGGSSQVQLVQSGAEVKKPGATVKISCKVSGFNIKDTYIHWVQQAPGKGLEWMGRIDPANDNTLYASKFQGRVTITADTSTDTAYMELSSLRSEDTAVYYCARGYGYYVFDHWGQGTLVTVSSEPKSCDKTHTCPPCGGGSSGGGSGGQPREPQVYTLPPSRDELTKNQVSLTCLVKGFYPSDIAVEWESNGQPENNYKTTPPVLDSDGSFFLYSKLTVDKSRWQQGNVFSCSVMHEALHNHYTQKSLSLSPGK
notes: Minibody homodimer, tested as transfection supernatant; also called humanized OKT8 minibody VL-VH; humanized variants
As for B5, the binding result in test [5] was “binds”.

B6: Humanized IAb_Mb2_CD8 (other)
chain: QVQLVQSGAEVKKPGATVKISCKVSGFNIKDTYIHWVQQAPGKGLEWMGRIDPANDNTLYASKFQGRVTITADTSTDTAYMELSSLRSEDTAVYYCARGYGYYVFDHWGQGTLVTVSSGSTSGGGSGGGSGGGGSSDVQITQSPSSLSASVGDRVTITCRTSRSISQYLAWYQQKPGKVPKLLIYSGSTLQSGVPSRFSGSGSGTDFTLTISSLQPEDVATYYCQQHNENPLTFGGGTKVEIKEPKSCDKTHTCPPCGGGSSGGGSGGQPREPQVYTLPPSRDELTKNQVSLTCLVKGFYPSDIAVEWESNGQPENNYKTTPPVLDSDGSFFLYSKLTVDKSRWQQGNVFSCSVMHEALHNHYTQKSLSLSPGK
notes: Minibody homodimer, tested as transfection supernatant; also called humanized OKT8 minibody VH-VL; humanized variants
As for B6, in test [5], the binding result is reported as “binds”.

B7: IAb_Mb2c_CD8 (other)
chain: B6 chain with W36F, M48I, R67K, V68A, E89G, A97G
notes: also called variant 2c
With B7, in test [3], the Ka worked out at 2.2e+08 M⁻¹, the Kd was determined as 4.5 nM, the koff was found to be 0.0032 s⁻¹ and the kon came out at 720000 M⁻¹ s⁻¹.

B8: IAb_Mb1d_CD8 (other)
chain: DVQITQSPSSLSASVGDRVTITCRTSRSISQYLAWYQQKPGKVPKLLIYSGSTLQSGVPSRFSGSGSGTDFTLTISSLQPEDVATYYCQQHNENPLTFGGGTKVEIKGSTSGGGSGGGSGGGGSSQVQLVQSGAEVKKPGATVKISCKVSGFNIKDTYIHFVQQAPGKGLEWIGRIDPANDNTLYASKFQGKATITADTSTDTAYMELSSLRSEDTAVYYCGRGYGYYVFDHWGQGTLVTVSEPKSCDKTHTCPPCGGGSSGGGSGGQPREPQVYTLPPSRDELTKNQVSLTCLVKGFYPSDIAVEWESNGQPENNYKTTPPVLDSDGSFFLYSKLTVDKSRWQQGNVFSCSVMHEALHNHYTQKSLSLSPGK
notes: also called variant 1d
For the molecule B8, in test [3], the Ka was determined as 3.4e+08 M⁻¹, the Kd was 2.9 nM, the koff is 0.002 s⁻¹ and the kon came to 700000 M⁻¹ s⁻¹.

B9: IAb_Mb1a_CD8 (other)
chain: DVQITQSPSSLSASVGDRVTITCRTSRSISQYLAWYQQKPGKVPKLLIYSGSTLQSGVPSRFSGSGSGTDFTLTISSLQPEDVATYYCQQHNENPLTFGGGTKVEIKGSTSGGGSGGGSGGGGSSEVQLVESGGGLVQPGGSLRLSCAASGFNIKDTYIHFVRQAPGKGLEWIGRIDPANDNTLYASKFQGKATISADTSKNTAYLQMNSLRAGDTAVYYCGRGYGYYVFDHWGQGTLVTVSSEPKSCDKTHTCPPCGGGSSGGGSGGQPREPQVYTLPPSRDELTKNQVSLTCLVKGFYPSDIAVEWESNGQPENNYKTTPPVLDSDGSFFLYSKLTVDKSRWQQGNVFSCSVMHEALHNHYTQKSLSLSPGK
notes: also called variant 1a
Take B9: in test [3], the Ka was found to be 5.3e+08 M⁻¹, the dissociation constant Kd came to 1.9 nM, the koff worked out at 0.0012 s⁻¹ and the on-rate constant (kon) amounted to 650000 M⁻¹ s⁻¹.

B10: IAb_Mb2d_CD8 (other)
chain: QVQLVQSGAEVKKPGATVKISCKVSGFNIKDTYIHFVQQAPGKGLEWIGRIDPANDNTLYASKFQGKATITADTSTDTAYMELSSLRSEDTAVYYCGRGYGYYVFDHWGQGTLVTVSGSTSGGGSGGGSGGGGSSDVQITQSPSSLSASVGDRVTITCRTSRSISQYLAWYQQKPGKVPKLLIYSGSTLQSGVPSRFSGSGSGTDFTLTISSLQPEDVATYYCQQHNENPLTFGGGTKVEIKEPKSCDKTHTCPPCGGGSSGGGSGGQPREPQVYTLPPSRDELTKNQVSLTCLVKGFYPSDIAVEWESNGQPENNYKTTPPVLDSDGSFFLYSKLTVDKSRWQQGNVFSCSVMHEALHNHYTQKSLSLSPGK
notes: also called variant 2d
For B10, in test [3], the Ka is 1.8e+08 M⁻¹, the dissociation constant (Kd) was 5.5 nM, the koff came to 0.0029 s⁻¹ and the kon was determined as 540000 M⁻¹ s⁻¹.
